Legend:
[1] = biological target: T1, N^α -AT (AAA1 N^α -acetyltransferase) (Saccharomyces cerevisiae, UniProt P07347+P12945); conditions: purified enzyme; Lee et al., J. Biol. Chem. 263:14948-14955 (1988); cited from earlier work
T1 construct: isolates N^α -acetyltransferase by treating yeast cells with lyticase; endogenous in cells; host or cells: Saccharomyces cerevisiae cells (native enzyme)
T1 sequence (P12945 2-854): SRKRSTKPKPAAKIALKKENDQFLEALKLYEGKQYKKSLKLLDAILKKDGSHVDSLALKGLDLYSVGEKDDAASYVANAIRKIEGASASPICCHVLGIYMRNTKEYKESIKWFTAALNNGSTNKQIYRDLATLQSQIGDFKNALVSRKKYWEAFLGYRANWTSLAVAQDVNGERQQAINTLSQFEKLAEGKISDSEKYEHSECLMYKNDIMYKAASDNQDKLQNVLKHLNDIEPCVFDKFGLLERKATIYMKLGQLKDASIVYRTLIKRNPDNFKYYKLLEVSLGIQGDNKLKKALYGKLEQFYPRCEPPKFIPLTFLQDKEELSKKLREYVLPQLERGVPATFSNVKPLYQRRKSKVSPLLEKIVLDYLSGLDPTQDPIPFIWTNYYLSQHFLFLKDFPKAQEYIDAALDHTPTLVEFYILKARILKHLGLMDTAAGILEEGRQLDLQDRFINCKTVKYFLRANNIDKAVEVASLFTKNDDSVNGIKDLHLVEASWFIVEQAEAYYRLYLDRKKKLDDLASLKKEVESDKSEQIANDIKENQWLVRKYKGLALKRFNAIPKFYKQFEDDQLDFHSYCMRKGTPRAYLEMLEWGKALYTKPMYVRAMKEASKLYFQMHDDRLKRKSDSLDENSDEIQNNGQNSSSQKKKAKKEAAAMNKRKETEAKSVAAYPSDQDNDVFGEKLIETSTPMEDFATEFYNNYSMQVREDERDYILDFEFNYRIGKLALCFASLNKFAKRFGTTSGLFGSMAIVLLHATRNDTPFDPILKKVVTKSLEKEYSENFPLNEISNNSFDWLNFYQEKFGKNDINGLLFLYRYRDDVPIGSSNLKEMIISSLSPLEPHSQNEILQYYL
T1 sequence (P07347 1-238): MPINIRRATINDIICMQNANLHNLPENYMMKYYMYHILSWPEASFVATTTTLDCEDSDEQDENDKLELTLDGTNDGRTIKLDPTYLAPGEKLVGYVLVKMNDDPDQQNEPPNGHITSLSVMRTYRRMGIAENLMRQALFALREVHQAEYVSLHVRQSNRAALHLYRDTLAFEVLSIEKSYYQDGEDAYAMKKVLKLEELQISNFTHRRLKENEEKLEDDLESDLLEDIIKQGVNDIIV

[2] = biological target: T1, N^α -AT (AAA1 N^α -acetyltransferase); assay: N^α-acetylation of synthetic peptides by AAA1 N^α-acetyltransferase ([3H]acetyl coenzyme A incorporation); assay type: biochemical; design: concentration or dose not given beside the values
Description: (§1) Aliquots of the lysate were added to 1.5 ml Eppendorf tubes containing a reaction mixture of 50 mM HEPES, pH 7.4, 150 mM KCl, 1 mM DTT, 25 μM[^3 H]acetyl coenzyme A (0.5 μCi) and 50 μM ACTH (1-24) with an adjusted final volume of 100 μl. The assay mixture was incubated at 30 C for 30 min. The reaction was stopped by adding 0.5 M acetic acid and chilled in an ice bath. […] The radioactivity in the control represented acetylation of endogenous compounds is subtracted from each sample determination. One unit of activity is defined as 1 pmol of acetyl residues incorporated into ACTH (1-24) under standard assay conditions.
(§2) This second N^α -acetyltransferase is a methionine N^α -acetyltransferase activity, and is designated as "M-N^α -AT." This second N^α -acetyltransferase is the subject of U.S. patent application of John A. Smith and Fang-Jen S. Lee, filed Oct. […] In order to compare the relative specificity and activity of the AAA1 N^α -acetyltransferase ("N^α -AT") of the present invention with the methionine N^α -acetyltransferase activity (M-N^α -AT) of U.S. patent application of John A. Smith and Fang-Jen S. Lee, filed Oct. […] These peptides were assessed for their ability to serve as substrates for the two enzymes. In Table 2, the effect of the amino terminal amino acid on activity is investigated; in Table 3, the effect of the penultimate amino terminal amino acid on activity is investigated.

[3] = biological target: T2, M-N^α -AT (methionine N^α -acetyltransferase) (Saccharomyces cerevisiae, UniProt Q06504); assay: N^α-acetylation of synthetic peptides by methionine N^α-acetyltransferase; assay type: biochemical; design: concentration or dose not given beside the values
T2 construct: endogenous in cells; host or cells: Saccharomyces cerevisiae aaa1 (AAA1-null) mutant
T2 sequence (Q06504 1-195): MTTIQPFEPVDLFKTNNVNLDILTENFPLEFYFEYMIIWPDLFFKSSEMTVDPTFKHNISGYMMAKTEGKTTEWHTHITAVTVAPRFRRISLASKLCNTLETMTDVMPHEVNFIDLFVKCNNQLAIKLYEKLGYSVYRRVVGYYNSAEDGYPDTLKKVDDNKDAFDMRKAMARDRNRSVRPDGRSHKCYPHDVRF
T2 sequence (Q12387 2-796 partner limits assumed): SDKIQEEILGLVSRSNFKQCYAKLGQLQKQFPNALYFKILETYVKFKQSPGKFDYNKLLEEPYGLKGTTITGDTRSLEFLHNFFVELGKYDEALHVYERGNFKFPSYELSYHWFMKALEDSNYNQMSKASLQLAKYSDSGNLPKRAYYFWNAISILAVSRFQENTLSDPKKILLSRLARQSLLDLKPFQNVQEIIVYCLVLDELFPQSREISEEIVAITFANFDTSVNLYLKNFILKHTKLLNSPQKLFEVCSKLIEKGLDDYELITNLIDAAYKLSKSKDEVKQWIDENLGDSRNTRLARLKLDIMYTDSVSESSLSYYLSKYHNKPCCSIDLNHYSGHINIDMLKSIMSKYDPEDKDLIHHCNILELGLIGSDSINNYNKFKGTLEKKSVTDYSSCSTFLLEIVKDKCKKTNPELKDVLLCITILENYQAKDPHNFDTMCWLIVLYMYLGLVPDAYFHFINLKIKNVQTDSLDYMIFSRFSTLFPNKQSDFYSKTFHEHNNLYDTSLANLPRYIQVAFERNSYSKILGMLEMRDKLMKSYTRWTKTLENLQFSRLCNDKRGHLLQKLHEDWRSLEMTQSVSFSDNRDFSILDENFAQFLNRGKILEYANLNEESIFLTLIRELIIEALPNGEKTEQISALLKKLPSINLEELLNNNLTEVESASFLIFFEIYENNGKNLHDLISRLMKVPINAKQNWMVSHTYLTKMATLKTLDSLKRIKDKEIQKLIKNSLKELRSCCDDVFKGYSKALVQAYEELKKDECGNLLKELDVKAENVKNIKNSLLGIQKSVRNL
Description: as §1, §2

[4] = Table 2: relative activity for N^α-acetylation of synthetic peptide substrate, influence of the amino terminal residue
[5] = Table 3: relative activity for N^α-acetylation of synthetic peptide substrate, influence of the penultimate amino terminal residue

| Substance | transfer of an acetyl group to synthetic peptide substrates by purified yeast N^α-acetyltransferase [1] | Activity (%) (mean activity ± S.D.) N^α -AT [2, 4] | Activity (%) (mean activity ± S.D.) N^α -AT [2, 5] | Activity (%) (mean activity ± S.D.) M-N^α -AT [3, 4] | Activity (%) (mean activity ± S.D.) M-N^α -AT [3, 5] |
| --- | --- | --- | --- | --- | --- |
| SIPETQKGVIFYESHGKLEYKDIP (SIPETQKGVIFYESHGKLEYKDIP) [ALCOHOL DEHYDROGENASE I (1-24) (Yeast), synthetic peptide substrate, yeast alcohol dehydrogenase I residues 1-24, reference compound] | effectively transfer an acetyl group | 102 ± 5 | 102 ± 5 | 0 | 0 |
| human superoxide dismutase (1-24): synthetic peptide substrate, residues 1-24 of human superoxide dismutase (ATKAVCVLKGDGPVQGIINFEQKE; UniProt P00441 2-25, looked up, fragment) | effectively transfer an acetyl group | – | – | – | – |
| SYSMEHFRWGKPVGKKRRPVKVYP [ACTH (Human), reference compound] | effectively transfer an acetyl group | 100 ± 5 | 100 ± 5 | 0 | 0 |
| SFPETQKGVIFYESHGKLEYKDIP (SFPETQKGVIFYESHGKLEYKDIP) | – | – | 118 ± 6 | – | 0 |
| SCPETQKGVIFYESHGKLEYKDIP (SCPETQKGVIFYESHGKLEYKDIP) | – | – | 136 ± 7 | – | 0 |
| PIPETQKGVIFYESHGKLEYKDIP (PIPETQKGVIFYESHGKLEYKDIP) | – | 70 ± 4 | – | 0 | – |
| DIPETQKGVIFYESHGKLEYKDIP (DIPETQKGVIFYESHGKLEYKDIP) | – | 0 | – | 0 | – |
| LIPETQKGVIFYESHGKLEYKDIP (LIPETQKGVIFYESHGKLEYKDIP) | – | 0 | – | 0 | – |
| NIPETQKGVIFYESHGKLEYKDIP (NIPETQKGVIFYESHGKLEYKDIP) | – | 0 | – | 0 | – |
| QIPETQKGVIFYESHGKLEYKDIP (QIPETQKGVIFYESHGKLEYKDIP) | – | 0 | – | 0 | – |
| TIPETQKGVIFYESHGKLEYKDIP (TIPETQKGVIFYESHGKLEYKDIP) | – | 103 ± 5 | – | 0 | – |
| STPETQKGVIFYESHGKLEYKDIP (STPETQKGVIFYESHGKLEYKDIP) | – | – | 144 ± 8 | – | 0 |
| EIPETQKGVIFYESHGKLEYKDIP (EIPETQKGVIFYESHGKLEYKDIP) | – | 0 | – | 0 | – |
